Test results taken from the DeepSol protein solubility set.

Assay: soluble on expression in E. coli; label from the status in PepcDB or PDB records

With “MLLQEELEQRTVSVSIQAAKLSGRVLRAAIAAVLQKMEQERTMPKVGRNSMKRLTYKDPGANTIEVSGRIRSFERYARKHQVRYHIEKELGTDPPKWTVYFKANQADALTAAFKEYTKKDLTRSTRPSLLIQLHKFKELAQSLGRDRVKNKEHGGPER” the “soluble on expression in E. coli” value was “not soluble”.

With “MVELLAPARDLSGLITAFNNGADSVYCGLKEMSMRATAKNFERNELIEGINFAHDADKRVYLCTNTVVYEDDILNLNEILEFAKSAEVDAIIVNDIGAMVTAKELGLEVHVSVQNNITNSKTAEFFSKFAKRVVLSRELTLNQIKRIKENLKVNKVDLELEGFIHGALCTAMSGRCYLSSYLFNRNANCGDCLQPCRRSWKLVNEHADGTHELISEGKYLLSPKDLCMIEHIPEMIDVFDCFKIEGRAKNVDYVMRATKTYREAIDSVVDGTYEEKLPIFKKELDKIYNREYDTGFYFRDLTCNHDLQYEFEGNVSPYKKIEVGKVVNYFKKVDVAEITLIDDLKVGDSVLIIGPTTGCIEEKIESMQVEGENITTAKKGQNVGIKLENLVRENDKVYILKED” the “soluble on expression in E. coli” value was “not soluble”.

With “MGSDKIHHHHHHDLDENVYDKLPTDEFGTTEKQINAIMAPAYQSLKNMLAYDGPWGAADMTADILIAPTRVGGDWWDGGQYMEQCMHSWKPNSYSVENCWTYCTEGLTTVNSVYNIIEKSEAMSDELKLQYLSELRGLRAFWYYVIVDIFGNAPLVTDFEDTSLPSITSRADLYKYVVKELTEIIPNLRSDVSDASYGKFTQGAARMVLAKMYLNAEEWIGEPNWKGVVEQCDEIMKLEYIIEPNWKTNFEVHNEVSREIIFPICYKASDAWGNSIHLWTLHYLDPDVLGFTGGMWNGINAQPDFVRTFDTEDPRYEGSFLIGPMIDPSTGEILKTTLGHDLIHTIDLNVVPGTEKTDADGNLTPWGEVHQEDGARINKWVYEKGMQNTNMENDIAIFRLADVYLMKAEALVRMGGDLGEATRLVNAIRERAYGNSDHNYTSVTLDDIYNERGYELAFEFVRRQDMIRFGTYLKPRYMKPKQTPEYRKIFPIPFKAWQKNNNLVQNPGYPAF” the “soluble on expression in E. coli” value was “not soluble”.

With “MGHHHHHHSHMRKTLIALMFATALPAIAMAAPPAPPAGAPDADAPGMHMQRGDRGPGMHRGPGPLKELDLTREQRQQIDRLMREQMHERREITQNYLEKMPAADQKAMRDEIEAKRSKTDSEVRALLKPDQQKQFDEIKKKEDERRAEWAEFKAWKAAKTAKAQ” the “soluble on expression in E. coli” value was “soluble”.

With “MVDIANEVGASESAIPPLKMLLLEGARQAALEAGLQNNSGILADTTFGQQALNDVTGQGWWIGRPVEMPGSYPLKLEHGDIGSQLVSWPQEHVVKCLVFYHPLDAESVRLEQEALIDEVYRACCQSGHDLLLEVILPRDAADQNEQYYPQIVERFYQLGILPDWWKLPPLSPDRWREISQHIEHYDPECRGILILGLDAPESELKSGFAAAADMPWVKGFAVGRTIFGEPSRQWLGGQLNDEQLIATVKQKYRMLIDYWREYRPAR” the “soluble on expression in E. coli” value was “not soluble”.

For “MGSDKIHHHHHHMLQLSEFEPEVLYAFPFRNEHPGTYVYHQHDFLELSIMLEGYSDYNVEGQWRRVVAGQALLFNPGIHHQETQPPHTQSLQLHIGFRHIALPGQVPNHLPFKDALISLDDYRAEFMANAQRIVAESQRPTAFGHALLIQAMVIEQLCWLLRSLPENSVSNDYTELHQGNVSRDQQALVNAATYYLDVHYNEDLTLGTVAASLHVSAAYLSRTFKAIQGETPISYLTRLRMQRAKQLLMQEAITVRQVAHAVGYQDPYYFSKVFKRYFGAAPTLIER”, the “soluble on expression in E. coli” value was “not soluble”.

For “MFSRPGLPVEYLQVPSASMGRDIKVQFQGGGPHAVYLLDGLRAQDDYNGWDINTPAFEEYYQSGLSVIMPVGGQSSFYTDWYQPSQSNGQNYTYKWETFLTREMPAWLQANKGVSPTGNAAVGLSMSGGSALILAAYYPQQFPYAASLSGFLNPSEGWWPTLIGLAMNDSGGYNANSMWGPSSDPAWKRNDPMVQIPRLVANNTRIWVYCGNGTPSDLGGDNIPAKFLEGLTLRTNQTFRDTYAADGGRNGVFNFPPNGTHSWPYWNEQLVAMKADIQHVLNGATPPAAPAAPAALEHHHHHH”, the “soluble on expression in E. coli” value was “soluble”.

With “INLEDPRSFLGRELPGFAQFDTEILLAGQGTDYTNMPAESPPPSKVMEEEREANLAEIEKQQTQSDNAQKDPPKQTTGDKKVVFIYHTHNTESYLPLLKGETDPDMARHSKANVTLVGDMFGQALESQGIGATVNKTDIQSKLNKKGLNYARSYDESRPVVKDALASNKNLQYIIDIHRDSRRKKDTTATIKGKSYARVAFVVGKKSKNFEENYKIASELHKLMEKKYPGLSTGVFSKGSPGDNGVYNQDLTDRALLLEFGGVDNNLEELQRAANAAADVFSEMYWDAEKVNAASGE” the “soluble on expression in E. coli” value was “not soluble”.

In the case of “MLNQSLRPLVNVQVRSVSSKYPRPTPRHFKRRLFEAALKPELPPTVNMCIPPGLIKREHTGKSKEYSDVELALSNLVRDWMVREEFRVMAVCQFLPVPGRTLWFAKNQLRSKNIEFRSYGNKILKKIFDKTPMSSLNTVLVGNNAILLAKDISAIKSILQETDKLNWIEPLVMMADGRIVDMVDARELAKLSSLEDLRAHTVQLLGQQVAQVTISLDTVTRHLPSLLDSHISTNQEAKK”, the “soluble on expression in E. coli” value was “not soluble”.

For “MSSALLRAAYAYDRLRAHPPEVAGQIATAMASAVHPKGEEPVFLELGVGTGRIALPLIARGYRYIALDADAAMLEVFRQKIAGVDRKVQVVQADARAIPLPDESVHGVIVVHLWHLVPDWPKVLAEAIRVLKPGGALLEGWDQAEASPEWTLQERWRAFAAEEGFPVERGLHAKRLKEVEEALRRLGLKPRTREVARWREERTPREALEALSERLYSFTQGLPEPVHARVMERLWAWAEAELGDLDRPFPVEKRFLLRVSRLG”, the “soluble on expression in E. coli” value was “soluble”.

In the case of “MAAISFLGDLIQTISDRGRDLIGLARSDLARTASAADLARFCEDLISRRGEASGVALARLILDRYAAFPLEDRLAFLELIATEFGADHDAVDAAIAAYRADPTRARLGLLHVAAEPRSQELIRRLNLARGGTLALVRMREDLFTLRKRLKDREAAPETIDATVSLDSDFEHLFASWFNRGFLVLRPIDWSTPADILEKIIRYEAVHEIADWDELRRRIQPTDRRCFAFFHPALLDEPLIFVEVALTNAIAPAIQPILADGREPVPARSATTAIFYSISNCQKGLAGVTFGNFLIKQVVEDLAREIPSLKTFVTLSPVPGFRTWLDRERGAGAPQGLTREDVEALRLLDTEDWRSDKTKCEAVRRAMLPAAAAYFLRAKNEKGRPLDPVARFHLGNGARLERMNFLGDTSKKGLKQSYGLMVNYLYDLSAIEKNHETYVNLGTVATSSAVSRELRSNLPPPRAVVLAEAGLEHHHHHH”, the “soluble on expression in E. coli” value was “not soluble”.

In the case of “MGSDKIHHHHHHMKVSADVRAMIERRKKNYSLEAPFYTSDEIFALDMEAIFRQHWIQVAVEPDVPEPGDYITVDIGNDSILIVRDDDMQVRAFHNVCRHRGARLCNTDKGSLGNIVCPYHSWTYNLNGDLMFAEHMGEQFDRCKHSLKAVHVENLAGLIFICLADNPPADFAVVRAAMEPYMLPHALASCKIAASIDIIEEGNWKLTMENNRECYHCVANHPELTISLYEYGFGYQRTPANEEGMAAFEETVARRTAQWEAMQLPSAEIERLADLVTGFRTQRLPLDRDGESQTLDAKVASKKLLGGFEQADLGGLSFWTQPNSWHHFMSDHIVSFSVIPLSAGKTLVRTKWLVHKDAREGIDYDVDNLTAVWRATNDQDRALVEYSQRGATSSAYEPGPYSPFTEGLVEKFCEWYIGRMAQYSNAPQTHDAGDTAPASHGEKVVSFKR”, the “soluble on expression in E. coli” value was “not soluble”.

With “MTASSPNRARTSLAAYASAGPVSLPAGSTRTVASGTSSRTRSAYASRVTASRSSAKAARSAVRRSRLRSSSPSASSCLGRWLRLAGYSRVPVPPASRTAATVCVTARSPGGWSACRRVRRRGPNACLRGASDRVHPGCGDLKGVGSKHRYVSHRNTRGDGYTTMSDLSDTAQEVHDDLSEHVDATVDDVEARLEKLVSEYKVPVDEARRSVENHYLDEAGLDRDDLAGGGGNDTVEVEDVDEAEQWVDITAKVVELWEPRSDSVGQVGLLGDPTGTIKFTKWAKSDLETLDEGQVYRLGNVVTDEYQGRYSVKLNKTTSIEAVDEEFEVGDNEDEVAGALVDVQSGSGLIKRCPEEDCTRVLQNGRCNEHGEGDGEFDLRIKGVLDDGTDVHEVIFDEEATEALTGIGLEEAKQMAKDALDTTVVADEMRATILGKYYRVTGPTFGRYVLANDTELLTTRPDTESVLIRARSILEHHHHHH” the “soluble on expression in E. coli” value was “not soluble”.

With “MSLTNQVTYLFFHGMKQISEHLFTTEEQAIIARSKAEGSYMKAPNGQATNLNKKQWAQVRTRAFREWFGDWENNPDEASKVRDANGEPLVVYHGTPISRDQAADRSKFRIADDWEIQTINAPFHTFRGGAYNGLIFTSLTEEKARSIGETRSMSIPDSEDGREQWTTDSYVYDLFVNARQPFDVKNPNAVKDILDALEGQLTAYDFYLGMEVPVSRKEAEKILEGGNSWRVVETPSMQEIIRSRGYDAIHALDEGVQYMAVFAPNQLKASGKYLYSERNTGVFSPGNNDIRFREVHHGVPASFTGYRSMKTETVRNDNIPAVLAALREKLEDTEQEWQDRILDYIAENYPTQTTVSAQTRSPEGLKEREAMKEGHHHHHH” the “soluble on expression in E. coli” value was “soluble”.

In the case of “MLLRFIIGLSSVLLVTGLFNPLLPTLGDYLLTDQQVQKYFSVAGPSNLAIGTCNSVPFASAQAGFASSVGLAPTTTWREANILTNATIGMIDQGMDQLAAVCQARQQFVQTLGAAYDTCTDRFYLISLGNTDWWNVMQYTHLMKHLEFICSTGFDVYQSNIDCIRKGETTDGNQYRACFYKFNATVNANPNNFCGATETFIGCIKDFFDTECNLYVGWMQCELERIGFAYDCYGLSC”, the “soluble on expression in E. coli” value was “not soluble”.

For “MLDTDTITFVNCMHEYICEMDSYPKMNTEIINFESDALRDNYLGDEFRRQILVYTPDSMTDSYPLMIELAGTNWKPRLHNKFANIVEKLFSQGLKAVIANPNFSTKYNINQYINSPAVGNYEDFIITEIVPYLRERYRTGKTALFGKSSGGFGSYTLAVRHPEVINGFADHFGDSCFFYLYADDFAYTYNMLQKYKKSELIEHLLSKRPTDEEMRALNVFGSSAFYSPDLNDPSGFDLPFDENTGEIKENVWSRWKQLDPVKNVKQNLDALKKLDAVYLDVGDSDEYRLYIGSRSLHNKLLEGGIEHHYEEFHGGHFGNSERYLVSLPYLYDALRVKE”, the “soluble on expression in E. coli” value was “not soluble”.

For “MDTQNLPDQIIPIFMSFDKNYALGASVSLYSLLSHASRHTSMIDFSPLNQSNKLLGANIVYKIHCLVKGVTLEQQNKLLKTIAPFKKFASLEFIHINSLDHSIESYLNKSCSKRYGGLLVLCRLLLASLFPNYSKIISIDADTVFLGDVASAYFALDNDPTKSLGMVRDTFSHLSFEAFCDFCKRACKNFKIDFSRFSPDELKRIHQGFNMGFLVAHLDRWRQDGFEKTALEFLKTRGKDLFYPEQCLVNMVFWERILELPIYYNCYSDFFKEHYPKNIIMLHFIKYKPWRSVSSLNGRLICYEAEASFWLANLFHTPFKNDFFKERLEMAKDQQMQSFKTHIRSQTIRNYLGFRVKNILKKVFKLSLEHHHHHH”, the “soluble on expression in E. coli” value was “soluble”.

In the case of “MAHHHHHHMGTMGASNDVTDVDDENLLSEELQSSSTGSWSSMGDLQTTESAESDAPSEESDPDERVRRATASFLQWKNKEYVPLSLDEKRAIKEYRKMVAQEEGSYTSTRAQRQRDRAPKLFISREDDWVDLGSPAEGDGLARRRSRKIRFVAAVIASKEVDVHNDGLVVLTDAGEEVPELPRSASILRMSCVKNLTEEAPVFVDDLNSCMMEDEGRSCESAVRWEFPR”, the “soluble on expression in E. coli” value was “soluble”.

For “MGSDKIHHHHHHMEKIIITATAESIEQVKELLVAGVDRIYVGEADHALRIPTNFTYDELREIAELVHSAGKELTVAANALMHQDMMDNIKPFMELMREIKVDYLVVGDTGIFYINKRDGYNFKLIYDTSVFVTSSRQINFWKDHGAVEAVLAREIPSEELFDIAKNLEMPAEILVYGASVIHHSKRTLLQNYYNFTKADETDLSRGRGLFLAEPSDPDSHYSIFEDKHGTHIFINNDIDMMTKLSELDEHGYHNWKLDGIYCPGQNFVEIVKLFVQARDLIEKGEFTYDQAFLLDEQVRKLHPAERGLDTGFYEFDRNKVK”, the “soluble on expression in E. coli” value was “not soluble”.
